Laboratory results as given in patent publication EP2698431B1 (Chugai Seiyaku Kabushiki Kaisha, dated 2020).
Read-outs that look alike come from different tables or passages of the source.

Tests used:
[1] = target: T1, soluble human IL-6 receptor (human, UniProt P08887 20-357); test: SPR 37C, 3 µM CaCl2
T1 construct: also called hsIL-6R
T1 sequence: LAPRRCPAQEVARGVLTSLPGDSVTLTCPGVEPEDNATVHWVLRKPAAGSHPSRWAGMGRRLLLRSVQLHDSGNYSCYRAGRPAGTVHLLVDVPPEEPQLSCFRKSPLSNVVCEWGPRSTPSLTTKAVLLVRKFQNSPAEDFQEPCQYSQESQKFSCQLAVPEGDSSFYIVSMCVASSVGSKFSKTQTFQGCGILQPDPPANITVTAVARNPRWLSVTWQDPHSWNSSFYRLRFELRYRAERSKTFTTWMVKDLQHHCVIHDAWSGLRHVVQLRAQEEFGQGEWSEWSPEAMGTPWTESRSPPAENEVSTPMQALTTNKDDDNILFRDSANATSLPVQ

[2] = target: T1, soluble human IL-6 receptor; test: SPR 37C, 3 µM Ca, estimated from Req
[3] = target: T2, human FcRn (soluble, complexed with β2-microglobulin) (human, UniProt P61769 21-119); test: SPR pH7.0
mouse FcγRIIb [4] = target: T3, mouse FcγRIIb (mouse, UniProt P08101 40-217, limits assumed); test: SPR pH7.4
T3 construct: bought; also called mFcgRIIb; mFcgRII
T3 sequence (looked up): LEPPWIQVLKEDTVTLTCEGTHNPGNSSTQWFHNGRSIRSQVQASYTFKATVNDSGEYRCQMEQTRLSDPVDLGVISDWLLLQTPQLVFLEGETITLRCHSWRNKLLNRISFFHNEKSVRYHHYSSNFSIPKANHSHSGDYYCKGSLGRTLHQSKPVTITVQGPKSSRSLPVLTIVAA

mouse FcγRIII [5] = target: T4, mouse FcγRIII (mouse, UniProt P08508 31-215); test: SPR pH7.4
T4 construct: bought; also called mFcgRIII
T4 sequence (looked up): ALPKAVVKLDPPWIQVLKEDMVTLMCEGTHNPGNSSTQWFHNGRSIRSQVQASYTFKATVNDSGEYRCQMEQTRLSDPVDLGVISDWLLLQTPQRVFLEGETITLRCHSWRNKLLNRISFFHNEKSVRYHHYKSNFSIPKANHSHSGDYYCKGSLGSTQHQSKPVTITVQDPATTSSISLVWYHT

mouse FcγRIV [6] = target: T5, mouse FcγRIV (mouse, UniProt A0A0B4J1G0 21-203); test: SPR pH7.4
T5 construct: bought; also called mFcgRIV
T5 sequence: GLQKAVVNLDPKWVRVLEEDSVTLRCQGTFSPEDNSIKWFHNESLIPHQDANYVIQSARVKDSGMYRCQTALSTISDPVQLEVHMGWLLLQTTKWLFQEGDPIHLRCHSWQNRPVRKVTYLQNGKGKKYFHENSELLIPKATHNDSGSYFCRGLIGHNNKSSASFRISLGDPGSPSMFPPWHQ

mouse FcγRI [7] = target: T6, mouse FcγRI (mouse, UniProt P26151 25-297); test: SPR pH7.4
T6 construct: bought; also called mFcgRI
T6 sequence (looked up): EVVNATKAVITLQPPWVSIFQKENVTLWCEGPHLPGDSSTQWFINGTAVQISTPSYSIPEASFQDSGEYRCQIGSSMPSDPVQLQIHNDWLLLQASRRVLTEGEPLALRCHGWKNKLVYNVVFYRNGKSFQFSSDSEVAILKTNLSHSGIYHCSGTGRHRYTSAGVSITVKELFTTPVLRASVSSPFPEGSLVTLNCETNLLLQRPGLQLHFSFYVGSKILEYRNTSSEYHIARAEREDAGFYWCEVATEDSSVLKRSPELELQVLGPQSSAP

[8] = target: T2, human FcRn (soluble, complexed with …); test: SPR pH7.0; remark: listed apart in the source
[9] = target: T2, human FcRn (soluble, complexed with …); test: SPR pH7.0; remark: listed apart in the source
[10] = target: T2, human FcRn (soluble, complexed with …); test: SPR pH7.0; remark: listed apart in the source
[11] = target: T2, human FcRn (soluble, complexed with …); test: SPR pH7.0; remark: listed apart in the source
mouse FcγRIIb [12] = target: T3, mouse FcγRIIb; test: SPR pH7.4; remark: listed apart in the source
mouse FcγRIII [13] = target: T4, mouse FcγRIII; test: SPR pH7.4; remark: listed apart in the source
mouse FcγRIV [14] = target: T5, mouse FcγRIV; test: SPR pH7.4; remark: listed apart in the source
mouse FcγRI [15] = target: T6, mouse FcγRI; test: SPR pH7.4; remark: listed apart in the source
[16] = target: T2, human FcRn (soluble, complexed with …); test: SPR pH7.0; remark: listed apart in the source
[17] = target: T2, human FcRn (soluble, complexed with …); test: SPR pH7.0; remark: listed apart in the source
[18] = target: T2, human FcRn (soluble, complexed with …); test: SPR pH7.0; remark: listed apart in the source
[19] = target: T2, human FcRn (soluble, complexed with …); test: SPR pH7.0; remark: listed apart in the source

T2 sequence (P61769 21-119, one chain of several): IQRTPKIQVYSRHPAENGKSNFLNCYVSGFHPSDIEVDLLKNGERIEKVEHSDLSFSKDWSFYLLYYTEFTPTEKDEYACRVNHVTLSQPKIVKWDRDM

B1: 6RL#9-IgG1 (antibody, V domains shown)
VH: QVQLVQSGAEVKKPGASVKVSCKASGYTFTSYYMHWVRQAPGQGLEWMGIINPSGGSTSYAQKFQGRVTMTRDTSTSTVYMELSSLRSEDTAVYYCARDDPGGGEYYFDYWGQGTLVTVSS
VL: QSVLTQPPSVSGAPGQRVTISCTGSRSNMGAGYDVHWYQLLPGAAPKLLISHNTHRPSGVPDRFSGSKSGASASLAITGLQAEDEADYYCQSHDSSLSAVVFGGGTKLTVLS
- Kd [1]: ≥ 31000 nM
- Kd [2]: ~31000 nM

B2: FH4-IgG1 (antibody, V domains shown)
VH: QVQLVQSGAEVKKPGSSVKVSCKASGGTFSSYAISWVRQAPGQGLEWMGGIIPIFGTANYAQKFQGRVTITADESTSTAYMELSSLRSEDTAVYYCARERDYYDSSGYYDAFDIWGQGTMVTVSS
VL: ETTVTQSPSFLSASVGDRVTITCITTTDIDDDMNWFQQEPGKAPKLLISEGNILRPGVPSRFSSSGYGTDFTLTISKLQPEDFATYYCLQSDNLPFTFGQGTKLEIKR
- Kd [1]: ≥ 34000 nM
- Kd [2]: ~34000 nM

B3: VH3/L(WT)-IgG1-F21 (antibody)
chain 1: QVQLQESGPGLVKPSETLSLTCAVSGHSISHDHAWSWVRQPPGEGLEWIGFISYSGITNYNPSLQGRVTISRDNSKNTLYLQMNSLRAEDTAVYYCARSLARTTAMDYWGEGTLVTVSSASTKGPSVFPLAPSSKSTSGGTAALGCLVKDYFPEPVTVSWNSGALTSGVHTFPAVLQSSGLYSLSSVVTVPSSSLGTQTYICNVNHKPSNTKVDKKVEPKSCDKTHTCPPCPAPELLGGPSVFLFPPKPKDTLYISRTPEVTCVVVDVSHEDPEVKFNWYVDGVEVHNAKTKPREEQYNSTYRVVSVLTPLHQDWLNGKEYKCKVSNKALPAPIEKTISKAKGQPREPQVYTLPPSRDELTKNQVSLTCLVKGFYPSDIAVEWESNGQPENNYKTTPPVLDSDGSFFLYSKLTVDKSRWQQGNVFSCSVMHEALHYHYTQKSLSLSP
chain 2: not shown
- Kd [3]: 30 nM
- binding amount (mouse FcγRIIb [4]): 112 RU
- binding amount (mouse FcγRIII [5]): 371 RU
- binding amount (mouse FcγRIV [6]): 242 RU
- binding amount (mouse FcγRI [7]): 315 RU
- Kd [8]: 30 nM
- Kd [9]: 30 nM

B4: VH3/L(WT)-IgG1-F424 (antibody)
chain 1: QVQLQESGPGLVKPSETLSLTCAVSGHSISHDHAWSWVRQPPGEGLEWIGFISYSGITNYNPSLQGRVTISRDNSKNTLYLQMNSLRAEDTAVYYCARSLARTTAMDYWGEGTLVTVSSASTKGPSVFPLAPSSKSTSGGTAALGCLVKDYFPEPVTVSWNSGALTSGVHTFPAVLQSSGLYSLSSVVTVPSSSLGTQTYICNVNHKPSNTKVDKKVEPKSCDKTHTCPPCPAPELLGGPKVFLFPPKPKDTLMISRTAEVTCVVVDVSHEDPEVKFNWYVDGVEVHNAKTKPREEQYNSTYRVVSVLTPLHQDWLNGKEYKCKVSNKALPAPIEKTISKAKGQPREPQVYTLPPSRDELTKNQVSLTCLVKGFYPSDIAVEWESNGQPENNYKTTPPVLDSDGSFFLYSKLTVDKSRWQQGNVFSCSVLHEALHYHYTQKSLSLSP
chain 2: not shown
- Kd [3]: 94 nM
- binding amount (mouse FcγRIIb [4]): -2.5 RU
- binding amount (mouse FcγRIV [6]): 138 RU
- Kd [10]: 94 nM

B5: VH3/L(WT)-IgG1-F939 (antibody)
chain 1: QVQLQESGPGLVKPSETLSLTCAVSGHSISHDHAWSWVRQPPGEGLEWIGFISYSGITNYNPSLQGRVTISRDNSKNTLYLQMNSLRAEDTAVYYCARSLARTTAMDYWGEGTLVTVSSASTKGPSVFPLAPSSKSTSGGTAALGCLVKDYFPEPVTVSWNSGALTSGVHTFPAVLQSSGLYSLSSVVTVPSSSLGTQTYICNVNHKPSNTKVDKKVEPKSCDKTHTCPPCPAPELRGGPKVFLFPPKPKDTLYISRTPEVTCVVVDVSHEDPEVKFNWYVDGVEVHNAKTKPREEQYNSTYRVVSVLTVLHQDWLNGKEYKCKVSNKALPAPIEKTISKAKGQPREPQVYTLPPSRDELTKNQVSLTCLVKGFYPSDIAVEWESNGQPENNYKTTPPVLDSDGSFFLYSKLTVDKSRWQQGNVFSCSVMHEALHYHVTQKSLSLSP
chain 2: not shown
- Kd [11]: 150 nM
- binding amount (mouse FcγRIIb [12]): -6.3 RU
- binding amount (mouse FcγRIII [13]): -24.9 RU
- binding amount (mouse FcγRIV [14]): -7.3 RU
- binding amount (mouse FcγRI [15]): -2 RU
- Kd [16]: 153 nM
- Kd [17]: 150 nM

B6: VH3/L(WT)-IgG1-F821 (antibody)
chain 1: QVQLQESGPGLVKPSETLSLTCAVSGHSISHDHAWSWVRQPPGEGLEWIGFISYSGITNYNPSLQGRVTISRDNSKNTLYLQMNSLRAEDTAVYYCARSLARTTAMDYWGEGTLVTVSSASTKGPSVFPLAPSSKSTSGGTAALGCLVKDYFPEPVTVSWNSGALTSGVHTFPAVLQSSGLYSLSSVVTVPSSSLGTQTYICNVNHKPSNTKVDKKVEPKSCDKTHTCPPCPAPELRGGPKVFLFPPKPKDTLYISRTPEVTCVVVDVSHEDPEVKFNWYVDGVEVHNAKTKPREEQYNSTYRVVSVLTVLHQDWLNGKEYKCKVSNKALPAPIEKTISKAKGQPREPQVYTLPPSRDELTKNQVSLTCLVKGFYPSDIAVEWESNGQPENNYKTTPPVLDSDGSFFLYSKLTVDKSRWQQGNVFSCSVMHEALHYHYTQKSLSLSP
chain 2: not shown
- Kd [11]: 310 nM
- binding amount (mouse FcγRIIb [12]): -4.5 RU
- binding amount (mouse FcγRIII [13]): -20.3 RU
- binding amount (mouse FcγRIV [14]): -3.8 RU
- binding amount (mouse FcγRI [15]): 0.6 RU
- Kd [18]: 310 nM

B7: VH3/L(WT)-IgG1-F140 (antibody)
chain 1: QVQLQESGPGLVKPSETLSLTCAVSGHSISHDHAWSWVRQPPGEGLEWIGFISYSGITNYNPSLQGRVTISRDNSKNTLYLQMNSLRAEDTAVYYCARSLARTTAMDYWGEGTLVTVSSASTKGPSVFPLAPSSKSTSGGTAALGCLVKDYFPEPVTVSWNSGALTSGVHTFPAVLQSSGLYSLSSVVTVPSSSLGTQTYICNVNHKPSNTKVDKKVEPKSCDKTHTCPPCPAPELLGGPKVFLFPPKPKDTLYISRTPEVTCVVVDVSHEDPEVKFNWYVDGVEVHNAKTKPREEQYNSTYRVVSVLTPLHQDWLNGKEYKCKVSNKALPAPIEKTISKAKGQPREPQVYTLPPSRDELTKNQVSLTCLVKGFYPSDIAVEWESNGQPENNYKTTPPVLDSDGSFFLYSKLTVDKSRWQQGNVFSCSVMHEALHYHYTQKSLSLSP
chain 2: not shown
- Kd [3]: 36 nM
- binding amount (mouse FcγRIIb [4]): -1.8 RU
- binding amount (mouse FcγRIII [5]): 46.6 RU
- binding amount (mouse FcγRIV [6]): 108 RU
- Kd [8]: 36 nM
- Kd [19]: 36 nM

B8: VH3/L(WT)-IgG1-F157 (antibody)
chain 1: QVQLQESGPGLVKPSETLSLTCAVSGHSISHDHAWSWVRQPPGEGLEWIGFISYSGITNYNPSLQGRVTISRDNSKNTLYLQMNSLRAEDTAVYYCARSLARTTAMDYWGEGTLVTVSSASTKGPSVFPLAPSSKSTSGGTAALGCLVKDYFPEPVTVSWNSGALTSGVHTFPAVLQSSGLYSLSSVVTVPSSSLGTQTYICNVNHKPSNTKVDKKVEPKSCDKTHTCPPCPAPELLGGPSVFLFPPKPKDTLMISRTAEVTCVVVDVSHEDPEVKFNWYVDGVEVHNAKTKPREEQYNSTYRVVSVLTPLHQDWLNGKEYKCKVSNKALPAPIEKTISKAKGQPREPQVYTLPPSRDELTKNQVSLTCLVKGFYPSDIAVEWESNGQPENNYKTTPPVLDSDGSFFLYSKLTVDKSRWQQGNVFSCSVLHEALHYHYTQKSLSLSP
chain 2: not shown
- Kd [3]: 150 nM
- binding amount (mouse FcγRIIb [4]): 129 RU
- binding amount (mouse FcγRIII [5]): 276 RU
- binding amount (mouse FcγRIV [6]): 243 RU
- binding amount (mouse FcγRI [7]): 315 RU
- Kd [19]: 150 nM
